The target in the experiment is yNup100FG (yeast) (UniProt Q02629). Briefly: high-speed atomic force microscopy.
UniProt Q02629, sequence (Q02629 whole entry): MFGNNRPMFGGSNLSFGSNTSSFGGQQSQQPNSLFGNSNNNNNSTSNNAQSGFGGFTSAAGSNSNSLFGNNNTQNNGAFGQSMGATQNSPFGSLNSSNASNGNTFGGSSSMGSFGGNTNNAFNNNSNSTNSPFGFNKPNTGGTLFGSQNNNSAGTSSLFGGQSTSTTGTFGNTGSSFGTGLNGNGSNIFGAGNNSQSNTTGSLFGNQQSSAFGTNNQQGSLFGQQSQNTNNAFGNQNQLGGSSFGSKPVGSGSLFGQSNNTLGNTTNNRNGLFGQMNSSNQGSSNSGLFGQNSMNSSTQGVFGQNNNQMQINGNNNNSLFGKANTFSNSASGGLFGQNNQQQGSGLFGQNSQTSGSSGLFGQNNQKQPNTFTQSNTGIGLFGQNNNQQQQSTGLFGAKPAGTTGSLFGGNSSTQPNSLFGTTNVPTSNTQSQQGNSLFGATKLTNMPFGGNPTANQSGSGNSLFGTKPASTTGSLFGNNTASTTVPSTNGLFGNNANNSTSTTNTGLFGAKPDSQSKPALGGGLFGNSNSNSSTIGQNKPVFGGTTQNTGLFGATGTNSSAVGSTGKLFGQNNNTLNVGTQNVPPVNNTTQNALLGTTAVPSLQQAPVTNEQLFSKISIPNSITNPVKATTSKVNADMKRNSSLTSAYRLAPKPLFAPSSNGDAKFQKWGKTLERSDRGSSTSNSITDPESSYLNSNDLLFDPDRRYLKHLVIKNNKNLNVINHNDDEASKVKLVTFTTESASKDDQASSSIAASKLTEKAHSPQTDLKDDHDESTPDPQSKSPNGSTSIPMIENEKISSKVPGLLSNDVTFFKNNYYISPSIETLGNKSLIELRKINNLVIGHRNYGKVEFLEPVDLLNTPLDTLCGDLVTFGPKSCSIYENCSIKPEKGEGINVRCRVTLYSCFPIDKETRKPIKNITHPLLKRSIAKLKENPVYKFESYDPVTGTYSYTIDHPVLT

As for “Yeast Kap95 (recombinant) (from UniProt Q06142 1-861) (natural protein)”, the height increase of the hydrogel due to Kap95 binding worked out at 31.2 nm.

(Values after paper PMC10103940.)
